Source: US20200299373A1
Blank lines part the entries; values can stand above or below the binder they belong to.

Experiments:
[1] = biological target: recombinant human FAM19A5 protein (His-tagged) (human) (UniProt Q7Z5A7); assay: ELISA on N'-Term His FAM19A5, fit of the titration (OD 492 nm); R2 printed 0.2002
[2] = biological target: recombinant human FAM19A5 protein (His-tagged) (human) (UniProt Q7Z5A7); assay: ELISA on N'-Term His FAM19A5, fit of the titration (OD 492 nm); R2 printed 0.9813
[3] = biological target: recombinant human FAM19A5 protein (His-tagged) (human) (UniProt Q7Z5A7); assay: ELISA on N'-Term His FAM19A5, fit of the titration; R2 printed 0.9813
[4] = biological target: recombinant human FAM19A5 protein (His-tagged) (human) (UniProt Q7Z5A7); assay: ELISA on N'-Term His FAM19A5, fit of the titration (OD 492 nm); R2 printed -0.2016
[5] = biological target: recombinant human FAM19A5 protein (His-tagged) (human) (UniProt Q7Z5A7); assay: ELISA on N'-Term His FAM19A5, fit of the titration; poor fit, R2 printed -0.2016
[6] = biological target: recombinant human FAM19A5 protein (His-tagged) (human) (UniProt Q7Z5A7); assay: two-site sandwich ELISA; capture antibody 13B4; S/N = O.D. at 10 ng/mL antigen / O.D. at 0 ng/mL; grey cell; cells 10 and 0 under recheck
[7] = biological target: recombinant human FAM19A5 protein (His-tagged) (human) (UniProt Q7Z5A7); assay: two-site sandwich ELISA; capture antibody P2-F11; biotinylated detection antibody 2-13; antigen in ng/mL
[8] = biological target: recombinant human FAM19A5 protein (His-tagged) (human) (UniProt Q7Z5A7); assay: two-site sandwich ELISA; capture antibody 1-65; biotinylated detection antibody 2-13; antigen in ng/mL
[9] = biological target: recombinant human FAM19A5 protein (His-tagged) (human) (UniProt Q7Z5A7); assay: two-site sandwich ELISA; capture antibody P2-A03; biotinylated detection antibody 2-13; antigen in ng/mL
[10] = biological target: recombinant human FAM19A5 protein (His-tagged) (human) (UniProt Q7Z5A7); assay: two-site sandwich ELISA; capture antibody 13B4; biotinylated detection antibody 2-13; antigen in ng/mL
[11] = biological target: recombinant human FAM19A5 protein (His-tagged) (human) (UniProt Q7Z5A7); assay: two-site sandwich ELISA; capture antibody 3-2; biotinylated detection antibody 2-13; antigen in ng/mL
[12] = biological target: recombinant human FAM19A5 protein (His-tagged) (human) (UniProt Q7Z5A7); assay: ELISA on N'-Term His FAM19A5, fit of the titration (OD 492 nm); R2 printed 0.9303
[13] = biological target: recombinant human FAM19A5 protein (His-tagged) (human) (UniProt Q7Z5A7); assay: two-site sandwich ELISA; capture antibody P2-A03; S/N = O.D. at 10 ng/mL antigen / O.D. at 0 ng/mL; O.D. in column 0 printed 0.39
[14] = biological target: recombinant human FAM19A5 protein (His-tagged) (human) (UniProt Q7Z5A7); assay: ELISA on coated FAM19A5, as in Example 6
[15] = biological target: recombinant human FAM19A5 protein (His-tagged) (human) (UniProt Q7Z5A7); assay: two-site sandwich ELISA; capture antibody 1-65; S/N = O.D. at 10 ng/mL antigen / O.D. at 0 ng/mL; O.D. in column 0 printed 0.44
[16] = biological target: recombinant human FAM19A5 protein (His-tagged) (human) (UniProt Q7Z5A7); assay: two-site sandwich ELISA; capture antibody P2-F11; S/N = O.D. at 10 ng/mL antigen / O.D. at 0 ng/mL; O.D. in column 0 printed 0.4
[17] = biological target: recombinant human FAM19A5 protein (His-tagged) (human) (UniProt Q7Z5A7); assay: two-site sandwich ELISA; capture antibody 3-2; S/N = O.D. at 10 ng/mL antigen / O.D. at 0 ng/mL; O.D. in column 0 printed 0.38
[18] = biological target: recombinant human FAM19A5 protein (His-tagged) (human) (UniProt Q7Z5A7); assay: ELISA on N'-Term His FAM19A5, fit of the titration; R2 printed 0.9303; the text gives about 2.77 nM for 2-13, which on the sheet stands under 13F7
[19] = biological target: recombinant human FAM19A5 protein (His-tagged) (human) (UniProt Q7Z5A7); assay: ELISA, His-FAM19A5 (positive control) coated on the plate, absorbance at 492 nm
[20] = biological target: recombinant human FAM19A5 protein (His-tagged) (human) (UniProt Q7Z5A7); assay: ELISA on N'-Term His FAM19A5, fit of the titration; R2 printed 0.9422
[21] = biological target: recombinant human FAM19A5 protein (His-tagged) (human) (UniProt Q7Z5A7); assay: ELISA on N'-Term His FAM19A5, fit of the titration (OD 492 nm); R2 printed 0.9422
[22] = biological target: recombinant human FAM19A5 protein (His-tagged) (human) (UniProt Q7Z5A7); assay: ELISA on N'-Term His FAM19A5, fit of the titration; R2 printed 0.9105
[23] = biological target: recombinant human FAM19A5 protein (His-tagged) (human) (UniProt Q7Z5A7); assay: ELISA on N'-Term His FAM19A5, fit of the titration (OD 492 nm); R2 printed 0.9105
[24] = biological target: recombinant human FAM19A5 protein (His-tagged) (human) (UniProt Q7Z5A7); assay: ELISA on N'-Term His FAM19A5, fit of the titration (OD 492 nm); R2 printed 0.1299

Bmax [1]: 0.134
B1: P2-F07 (antibody, V domains shown)
VH: QSLEESGGRLVTPGTPLTLTCTASGFSLSSYYMNWVRQAPGKGLEWIGIIYPSGTTYYAGWAKGRFTISKTSTTVDLKITSPTSEDTATYFCARTVSGYFDIWGPGTLVTVSL
VL: ELDLTQTPPSLSASVGGTVTINCLASEDIYSALAWYQQKPGKPPTLLISGTSNLESGVPPRFSGSGSGTDYTLTIGGVQAEDAATYFCQGYSSYPLTFGAGTNVEIKR

Bmax [2]: 2.45 | Kd [3]: 7.5 nM
B2: P1-A03 (antibody, V domains shown)
VH: QSVEESGGRLVTPGTPLTLTCTVSGFSLSSDYMSWVRQAPGEGLEWIGIIYPSTTTYYASWAKGRFTISKTSSTTVELKMTSLTTEDTATYFCARGSNWSSGMNLWGPGTLVTVSS
VL: ELVMTQTPPSLSASVGETVRIRCLASEDIYSGISWYQQKPEKPPTLLISGASNLESGVPPRFSGSGSGTDYTLTIGGVQAEDAATYYCLGGYSYSSTGLTFGAGTNVEIKR

Bmax [4]: 0.479 | Kd [5]: 6.95 nM
B3: P1-A08 (antibody, V domains shown)
VH: QSLEESGGRLVTPGTPLTLTCTASGFSLSTYYMSWVRQAPGKGLEWIGIVYPSGTTYYANWAKGRFTISTASTTVDLMITSPTTEDTATYFCARGDSFGYGLWGPGTLVTVSS
VL: ELVLTQSPSVQVNLGQTVSLTCTADTLSRSYASWYQQKPGQAPVLLIYRDTSRPSGVPDRFSGSSSGNTATLTISGAQAGDEADYYCATSDGSGSNYQYVFGGGTQLTVTR

S/N [6]: 1.1 | O.D., antigen 100 [7]: 1.94 | O.D., antigen column 10 [7]: 1.91 | O.D., antigen 100 [8]: 2.02 | O.D., antigen column 10 [8]: 1.8 | O.D., antigen 100 [9]: 1.88 | O.D., antigen column 10 [9]: 1.07 | O.D., antigen 100 [10]: 1.48 | O.D., antigen 100 [11]: 2.01 | O.D., antigen column 10 [11]: 1.97 | Bmax [12]: 2.41 | S/N [13]: 2.7 | Kd [14]: 2.77 nM | S/N [15]: 4.1 | S/N [16]: 4.8 | S/N [17]: 5.1 | Kd [18]: 1.96 nM | O.D. [19]: 3.6
B4: anti-FAM19A5 antibody 2-13 (antibody, V domains shown)
VH: AVTLDESGGGLQTPGGALSLVCKASGFTFSSHGMFWVRQTPGKGLEYVAEITNDGSGTNYGSAVKGRATISRDNGQSTVRLQLNNLRAEDTGTYFCARSTYECPGGFSCWGDTGQIDAWGHGTEVIVSS
VL: ALTQPSSVSANPGETVKITCSGGSYSYGWFQQKSPGSALVTVIYWDDERPSDIPSRFSGALSGSTNTLTITGVQADDEAVYFCGTEDISGTAGVFGAGTTLTVL

Kd [20]: 7.64 nM | Bmax [21]: 1.73
B5: P2-C12 (antibody, V domains shown)
VH: QSLEESGGRLVTPGTPLTLTCTVSGFSLSTYAVTWVRQAPGKGLEWIGYINWRGGTSYANWAKGRFTISKTSSTTVDLKMTSPTTEDTATYFCARDASSGAAFGSYGMDPWGPGTLVTVSS
VL: ELDMTQTPSSVSAAVGGTVTIKCQASQSISSYLSWYQQKPGQPPKLLIYEASKLASGVPSRFSGSGYGTEFTLTISDLECADAATYYCQQGYSSTNVWNAFGGGTNVEIKR

Kd [22]: 9.09 nM | Bmax [23]: 1.19
B6: P2-A01 (antibody, V domains shown)
VH: QEQLVESGGRLVTPGTPLTLSCTASGFFLSGYYMSWVRQAPGKGLEWIGIIYPSGSTDYASWAKGRFTISKTSTTVDLKITTPTTEDTATYFCARVAGYVGYGYETFFDIWGPGTLVTVSL
VL: ELVMTQTPPSLSASVGETVRIRCLASEDIYSGISWYQQKPGKPPTLLIYGASNLESGVPPRFSGSGSGSDYTLTIGGVQAEDAATYYCLGGVTYSSTGTHLTFGAGTNVEIKR

Bmax [24]: 0.172
B7: P1-F02 (antibody, V domains shown)
VH: QSLEESGGRLVTPGTPLTLTCTASGFSLSNYYMGWVRQAPGEGLEWIGIIYASGSTYYASWAKGRFTISKTSTTVDLKMTSLTTEDTATYFCARIDIGVGDYGWAYDRLDLWGQGTLVTVSS
VL: ELDMTQTPPSLSASVGETVRIRCLASEDIYSGISWYQQKPGKPPTLLIYGASNLESGVPPRFSGSGSGTDYTLTIGGVQAEDAATYYCLGGYSYSSITFGAGTNVEIKR
